# What was measured:
# HLA-B*07:02 = assay: IEDB peptide-MHC binding, purified MHC/competitive/radioactivity; filed as Kd, often an IC50 or EC50 that approximates it; ≥ and ≤ were set here for values at or beyond the usual limits of such assays
# HLA-B*35:01 = assay: as above
# HLA-B*51:01 = assay: as above
# HLA-B*53:01 = assay: as above
# HLA-B*54:01 = assay: as above
# HLA-C*03:03 = assay: IEDB peptide-MHC binding, purified MHC/direct/fluorescence; filed as Kd, often an IC50 or EC50 that approximates it; ≥ and ≤ were set here for values at or beyond the usual limits of such assays; details: source organism: Escherichia coli F11
# HLA-A*01:01 = assay: IEDB peptide-MHC binding, purified MHC/competitive/fluorescence; filed as Kd, often an IC50 or EC50 that approximates it; ≥ and ≤ were set here for values at or beyond the usual limits of such assays
# HLA-A*02:01 [1] = assay: as above
# HLA-A*68:02 [2] = assay: IEDB peptide-MHC binding, purified MHC/competitive/radioactivity; filed as Kd, often an IC50 or EC50 that approximates it; ≥ and ≤ were set here for values at or beyond the usual limits of such assays
# HLA-B*57:01 = assay: as above
# HLA-B*58:01 = assay: as above
# HLA-A*02:01 [3] = assay: as above; details: source organism: Vaccinia virus WR
# HLA-A*02:02 = assay: as above; details: source organism: Vaccinia virus WR
# HLA-A*02:03 = assay: as above; details: source organism: Vaccinia virus WR
# HLA-A*02:06 = assay: as above; details: source organism: Vaccinia virus WR
# HLA-A*03:01 = assay: as above; details: source organism: Vaccinia virus WR
# HLA-A*11:01 = assay: as above; details: source organism: Vaccinia virus WR
# HLA-A*31:01 = assay: as above; details: source organism: Vaccinia virus WR
# HLA-A*33:01 = assay: as above; details: source organism: Vaccinia virus WR
# HLA-A*68:01 = assay: as above; details: source organism: Vaccinia virus WR
# HLA-C*12:03 = assay: IEDB peptide-MHC binding, purified MHC/direct/fluorescence; filed as Kd, often an IC50 or EC50 that approximates it; ≥ and ≤ were set here for values at or beyond the usual limits of such assays
# HLA-A*68:02 [4] = assay: IEDB peptide-MHC binding, purified MHC/competitive/fluorescence; filed as Kd, often an IC50 or EC50 that approximates it; ≥ and ≤ were set here for values at or beyond the usual limits of such assays; details: source organism: Burkholderia mallei GB8 horse 4
# HLA-A*02:01 [5] = assay: IEDB peptide-MHC binding, purified MHC/direct/fluorescence; filed as Kd, often an IC50 or EC50 that approximates it; ≥ and ≤ were set here for values at or beyond the usual limits of such assays; details: source organism: Camelpox virus M-96
# HLA-A*69:01 = assay: as above; details: source organism: Camelpox virus M-96
# HLA-C*05:01 = assay: as above; details: source organism: Vaccinia virus Copenhagen
# [6] = source organism: SARS coronavirus Tor2
# [7] = source organism: Escherichia coli F11
# [8] = source organism: Vaccinia virus WR
# [9] = source organism: Dengue virus 2 Jamaica/1409/1983
# [10] = source organism: Dengue virus 1 Brazil/97-11/1997
# [11] = source organism: Dengue virus 3 Martinique/1243/1999
# [12] = source organism: Vaccinia virus Copenhagen
sequence,measurement,setting,value
RPIFEWIEA,Kd,HLA-B*07:02; [6],378 nM
same,Kd,HLA-B*35:01; [6],296 nM
same,Kd,HLA-B*51:01; [6],416 nM
same,Kd,HLA-B*53:01; [6],234 nM
same,Kd,HLA-B*54:01; [6],100 nM
RTDAWSYPV,Kd,HLA-C*03:03,1460 nM
same,Kd,HLA-A*01:01; [7],13.5 nM
same,Kd,HLA-A*02:01 [1]; [7],0.8 nM
SPETQQMII,Kd,HLA-B*07:02; [8],408 nM
same,Kd,HLA-B*35:01; [8],845 nM
same,Kd,HLA-B*51:01; [8],105 nM
same,Kd,HLA-B*53:01; [8],11.4 nM
same,Kd,HLA-B*54:01; [8],19500 nM
STASSWSY,Kd,HLA-A*01:01; source organism: Influenza A virus (A/swine/Ohio/24366/2007(H1N1)),≥ 20000 nM
STSTWVTYGT,Kd,HLA-A*68:02 [2]; [9],72.8 nM
same,Kd,HLA-B*57:01; [9],130 nM
same,Kd,HLA-B*58:01; [9],1120 nM
VASVELPNSL,Kd,HLA-B*57:01; [10],4530 nM
same,Kd,HLA-B*58:01; [10],149 nM
VASVNMVSRL,Kd,HLA-B*57:01; [11],2240 nM
same,Kd,HLA-B*58:01; [11],1050 nM
VLPHLCLDYK,Kd,HLA-A*02:01 [3],≥ 69.4 µM
same,Kd,HLA-A*02:02,≥ 70 µM
same,Kd,HLA-A*02:03,≥ 70.4 µM
same,Kd,HLA-A*02:06,≥ 20.2 µM
same,Kd,HLA-A*03:01,26.1 nM
same,Kd,HLA-A*11:01,194 nM
same,Kd,HLA-A*31:01,1760 nM
same,Kd,HLA-A*33:01,19.3 µM
same,Kd,HLA-A*68:01,1320 nM
same,Kd,HLA-A*68:02 [2]; [8],≥ 69800 nM
same,Kd,HLA-B*07:02; [8],≥ 69600 nM
same,Kd,HLA-B*35:01; [8],≥ 69900 nM
same,Kd,HLA-B*51:01; [8],≥ 69600 nM
same,Kd,HLA-B*53:01; [8],≥ 69900 nM
same,Kd,HLA-B*54:01; [8],≥ 69900 nM
VPHSVFIASA,Kd,HLA-B*07:02; [8],528 nM
same,Kd,HLA-B*35:01; [8],8490 nM
same,Kd,HLA-B*51:01; [8],≥ 69600 nM
same,Kd,HLA-B*53:01; [8],≥ 69900 nM
same,Kd,HLA-B*54:01; [8],0.286 nM
WAWPFAAVL,Kd,HLA-C*12:03; source organism: Burkholderia mallei GB8 horse 4,≤ 1 nM
same,Kd,HLA-A*68:02 [4],53.5 nM
YFDDVTAFL,Kd,HLA-A*02:01 [5],5 nM
same,Kd,HLA-A*69:01,428 nM
same,Kd,HLA-C*05:01,14 nM
YLDYDTIYV,Kd,HLA-C*05:01,≤ 1 nM
same,Kd,HLA-A*02:01 [1]; [12],0.4 nM
YLYASFCTV,Kd,HLA-C*12:03; [12],34 nM
same,Kd,HLA-A*02:01 [1]; [12],3.2 nM
